Substitutions are numbered along the chain they refer to. In names and notes the source's numbering stands.
B1: XPA23 Fab, heavy chain Y32F (Fab, V domains shown)
VH: EVQLLESGGGLVQPGGSLRLSCAASGFTFSKFFMFWVRQAPGKGLEWVSVISPSGGMTRYADSVKGRFTISRDNSKNTLYLQMNSLRAEDTAVYYCARVGYGGNSDYWGQGTLVTVSS
VL: DIQMTQSPSSVSASVGDRLTIICRASQDINRWLAWYQQTPGNAPKLLIHSATSLQSGVPSRFSGSGSGTDFTLTINSLQPEDFATYYCQQADSFPLTFGGGTKVEIK
B2: XPA23 Fab, heavy chain Y101D (Fab, V domains shown)
VH: B1 VH with F32Y, Y101D
VL: B1 VL
B3: XPA23 Fab, heavy chain Y107H (Fab, V domains shown)
VH: B1 VH with F32Y, Y107H
VL: B1 VL
B4: XPA23 Fab, heavy chain Y32N (Fab, V domains shown)
VH: B1 VH with F32N
VL: B1 VL
B5: XPA23 Fab, heavy chain Y32S (Fab, V domains shown)
VH: B1 VH with F32S
VL: B1 VL
B6: XPA23 Fab, heavy chain Y101F (Fab, V domains shown)
VH: B1 VH with F32Y, Y101F
VL: B1 VL
B7: XPA23 Fab, heavy chain Y101N (Fab, V domains shown)
VH: B1 VH with F32Y, Y101N
VL: B1 VL
B8: XPA23 Fab, heavy chain Y107F (Fab, V domains shown)
VH: B1 VH with F32Y, Y107F
VL: B1 VL
B9: XPA23 Fab, heavy chain Y101E (Fab, V domains shown)
VH: B1 VH with F32Y, Y101E
VL: B1 VL
B10: XPA23 Fab, heavy chain Y101W (Fab, V domains shown)
VH: B1 VH with F32Y, Y101W
VL: B1 VL
B11: XPA23 Fab, heavy chain Y107D (Fab, V domains shown)
VH: B1 VH with F32Y, Y107D
VL: B1 VL
B12: XPA23 Fab, heavy chain Y32Q (Fab, V domains shown)
VH: B1 VH with F32Q
VL: B1 VL
B13: XPA23 Fab, heavy chain Y101H (Fab, V domains shown)
VH: B1 VH with F32Y, Y101H
VL: B1 VL
B14: XPA23 Fab, heavy chain Y32H (Fab, V domains shown)
VH: B1 VH with F32H
VL: B1 VL
B15: XPA23 Fab, heavy chain Y101Q (Fab, V domains shown)
VH: B1 VH with F32Y, Y101Q
VL: B1 VL
B16: XPA23 Fab, heavy chain Y101R (Fab, V domains shown)
VH: B1 VH with F32Y, Y101R
VL: B1 VL
B17: XPA23 Fab, heavy chain Y107E (Fab, V domains shown)
VH: B1 VH with F32Y, Y107E
VL: B1 VL

target: T1, IL-1beta (UniProt P01584 117-269); assay: Biacore
T1 construct: also called IL-1β

fold difference in affinity vs parental | binding result | Binder
0.75 fold | – | B1
– | no binding | B2
– | no binding | B3
0.04 fold | – | B4
1.33 fold | – | B5
0.85 fold | – | B6
0.06 fold | – | B7
0.9 fold | – | B8
0.03 fold | – | B9
0.81 fold | – | B10
0.85 fold | – | B11
– | no binding | B12
0.04 fold | – | B13
0.62 fold | – | B14
0.06 fold | – | B15
0.85 fold | – | B16
0.9 fold | – | B17

Source: patent US20110118131A1 (published 2011)
